What all share (assay): G' assay
Assay [1] concerns the target GST-Atrophin-1 Interacting Protein PDZ domain 3 (Rattus norvegicus (Rat)), O88382.
The target in assay [2] is GST-BAI-1 Associated Protein PDZ domain 2 (Mus musculus (Mouse)), Q6RHR9.
Assay [3] concerns the target GST-BAI-1 Associated Protein PDZ domain 6 (Homo sapiens (Human)), Q96QZ7.
The target of assay [4] is T1, GST-FLJ00011 PDZ domain 1 (Homo sapiens (Human)), Q9H5P4.
T1 chain: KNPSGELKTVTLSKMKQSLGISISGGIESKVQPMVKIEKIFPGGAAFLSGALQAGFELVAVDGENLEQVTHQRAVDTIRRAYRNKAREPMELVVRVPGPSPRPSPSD

In assay [5] the target is T2, GST-INADL PDZ domain 3 (Homo sapiens (Human)), Q8NI35.
T2 chain: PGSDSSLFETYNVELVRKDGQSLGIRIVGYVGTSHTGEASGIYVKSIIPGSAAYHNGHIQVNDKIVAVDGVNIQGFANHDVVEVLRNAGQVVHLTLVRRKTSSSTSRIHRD

In assay [6] the target is T3, GST-KIAA0382 PDZ domain 1 (Canis lupus familiaris (Dog) (Canis familiaris)), A0A8I3.
T3 chain: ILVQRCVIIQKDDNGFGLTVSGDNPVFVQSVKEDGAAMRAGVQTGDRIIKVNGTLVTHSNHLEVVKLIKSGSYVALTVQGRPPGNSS

Assay [7] addresses T4, GST-KIAA0807(S) PDZ domain 1 (Homo sapiens (Human)), Q6P0Q8.
T4 chain: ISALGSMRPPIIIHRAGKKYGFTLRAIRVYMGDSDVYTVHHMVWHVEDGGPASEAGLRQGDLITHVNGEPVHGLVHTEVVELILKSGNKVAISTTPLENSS

Assay [8] has as its target T5, GST-KIAA1526 PDZ domain 1 (Homo sapiens (Human)), Q9P202.
T5 chain: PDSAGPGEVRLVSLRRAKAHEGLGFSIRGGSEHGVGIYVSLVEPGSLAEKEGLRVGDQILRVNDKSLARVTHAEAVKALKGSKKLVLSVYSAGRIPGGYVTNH

In assay [9] the target is GST-KIAA1634 PDZ domain 5 (Homo sapiens (Human)), Q5TCQ9.
The target of assay [10] is GST-KIAA807 [GST: P08515].
For assay [11], the target named is T6, GST-LIM Mystique PDZ domain 1 (Homo sapiens (Human)), Q96JY6.
T6 chain: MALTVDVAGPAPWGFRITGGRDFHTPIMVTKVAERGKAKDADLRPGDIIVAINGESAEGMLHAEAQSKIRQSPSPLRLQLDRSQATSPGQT

In assay [12] the target is T7, GST-LIM-RIL PDZ domain 1 (Homo sapiens (Human)), P50479.
T7 chain: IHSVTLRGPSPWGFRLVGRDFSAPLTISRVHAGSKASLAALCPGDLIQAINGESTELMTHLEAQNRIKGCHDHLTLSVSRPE

Assay [13] addresses T8, GST-MINT1 PDZ domain 2 (Mus musculus (Mouse)), B2RUJ5.
T8 chain: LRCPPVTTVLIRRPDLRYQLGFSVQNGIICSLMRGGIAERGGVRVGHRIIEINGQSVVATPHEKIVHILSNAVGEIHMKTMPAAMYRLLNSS

Assay [14] addresses T9, GST-MINT1 PDZ domains 1, 2, Q02410.
T9 chain: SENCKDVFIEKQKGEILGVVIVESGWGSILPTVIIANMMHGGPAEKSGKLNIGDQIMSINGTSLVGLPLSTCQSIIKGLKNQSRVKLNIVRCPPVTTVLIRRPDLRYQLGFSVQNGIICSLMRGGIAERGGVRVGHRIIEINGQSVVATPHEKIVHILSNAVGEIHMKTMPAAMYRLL

Assay [15] addresses T10, GST-Outer Membrane PDZ domain 1 (Homo sapiens (Human)), P57105.
T10 chain: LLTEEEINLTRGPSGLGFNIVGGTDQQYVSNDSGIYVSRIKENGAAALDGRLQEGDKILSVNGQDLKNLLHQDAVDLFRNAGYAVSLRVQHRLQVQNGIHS

Assay [16] has as its target T11, GST-PTPL1 PDZ domain 2 (Homo sapiens (Human)), Q12923.
T11 chain: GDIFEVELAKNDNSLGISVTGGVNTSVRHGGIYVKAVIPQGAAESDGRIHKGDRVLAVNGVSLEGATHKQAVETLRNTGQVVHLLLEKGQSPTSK

Assay [17] has as its target T12, GST-Syntrophin gamma 1 PDZ domain 1 (Homo sapiens (Human)), Q9NSN8.
T12 chain: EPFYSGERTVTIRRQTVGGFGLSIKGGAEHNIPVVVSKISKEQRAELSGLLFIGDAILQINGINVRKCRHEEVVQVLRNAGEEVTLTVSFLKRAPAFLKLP

The target of assay [18] is T13, GST-TIP1 PDZ domain 1 (Table 9 insert) (Homo sapiens (Human)), O14907.
T13 chain: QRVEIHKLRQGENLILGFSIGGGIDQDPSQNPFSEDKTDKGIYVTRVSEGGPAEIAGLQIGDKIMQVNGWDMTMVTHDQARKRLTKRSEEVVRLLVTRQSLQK

The target of assay [19] is T14, GST-FLJ 10324 PDZ domain 1 [GST: P08515].
T14 chain: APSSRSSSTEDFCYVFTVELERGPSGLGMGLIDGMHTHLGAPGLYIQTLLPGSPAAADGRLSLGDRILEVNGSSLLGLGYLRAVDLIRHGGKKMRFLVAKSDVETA

Assay [20] deals with T15, GST-HEMBA 1003117 PDZ domain 1 (Homo sapiens (Human)), Q96JH8.
T15 chain: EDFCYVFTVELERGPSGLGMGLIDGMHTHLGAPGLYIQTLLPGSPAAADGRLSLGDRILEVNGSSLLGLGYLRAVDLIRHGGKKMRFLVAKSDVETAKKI

For assay [21], the target named is GST-PAR3 PDZ domain 3 (Homo sapiens (Human)), Q8TEW0.
Note: key of the grades not given here.

GST-Atrophin-1 Interacting Protein PDZ domain 3 (Rattus norvegicus (Rat)), O88382, sequence (O88382 774-865, tags or fused parts left off): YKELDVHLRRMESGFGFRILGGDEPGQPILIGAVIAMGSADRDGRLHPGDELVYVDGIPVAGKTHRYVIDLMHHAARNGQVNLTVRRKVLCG
GST-KIAA807 [GST: P08515], sequence (P08515 whole entry, the tested form may be a part): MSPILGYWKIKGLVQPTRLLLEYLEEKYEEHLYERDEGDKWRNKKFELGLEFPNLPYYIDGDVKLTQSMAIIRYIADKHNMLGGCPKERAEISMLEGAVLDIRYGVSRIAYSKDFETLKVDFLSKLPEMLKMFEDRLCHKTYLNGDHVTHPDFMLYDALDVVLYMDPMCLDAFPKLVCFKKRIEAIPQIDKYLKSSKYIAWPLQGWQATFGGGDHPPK
GST-BAI-1 Associated Protein PDZ domain 6 (Homo sapiens (Human)), Q96QZ7, sequence (Q96QZ7 1143-1233): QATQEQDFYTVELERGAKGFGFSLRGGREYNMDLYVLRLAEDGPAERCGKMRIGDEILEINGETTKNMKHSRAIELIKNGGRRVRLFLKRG
GST-KIAA1634 PDZ domain 5 (Homo sapiens (Human)), Q5TCQ9, sequence (Q5TCQ9 other isoform, or with tags, fused parts or gaps): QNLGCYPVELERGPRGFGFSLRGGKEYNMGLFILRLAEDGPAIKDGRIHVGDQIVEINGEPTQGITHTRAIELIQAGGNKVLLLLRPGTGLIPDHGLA
GST-BAI-1 Associated Protein PDZ domain 2 (Mus musculus (Mouse)), Q6RHR9, sequence (Q6RHR9 455-558): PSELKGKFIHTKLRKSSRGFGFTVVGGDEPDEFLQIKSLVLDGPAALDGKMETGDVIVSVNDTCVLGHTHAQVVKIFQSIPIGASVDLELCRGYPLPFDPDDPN
GST-PAR3 PDZ domain 3 (Homo sapiens (Human)), Q8TEW0, sequence (Q8TEW0 579-681): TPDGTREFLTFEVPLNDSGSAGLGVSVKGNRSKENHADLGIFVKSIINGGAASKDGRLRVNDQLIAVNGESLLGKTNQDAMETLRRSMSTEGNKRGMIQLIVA

On to TQGFPGPATWRRISSLESEV (modifications not checked) [NMDA Glutamate Receptor 2C (cysteine-free)], for which the Classification is 2 A450 class in [1]; 4 A450 class in assay [2]; 2 A450 class in [3]; 2 A450 class in assay [4]; 2 A450 class in assay [5]; 1 A450 class in assay [6]. For the same molecule, the Classification in assay [7] is 5 A450 class; in assay [8], 3 A450 class; in assay [9] it was 1 A450 class; in assay [10], 4 A450 class; in assay [11] it was 4 A450 class; in assay [12] it was 5 A450 class. Further, the Classification in assay [13] came out at 1 A450 class; in assay [14], 1 A450 class; in assay [15], 5 A450 class; in assay [16], 5 A450 class; in assay [17], 4 A450 class; in [18] it was 5 A450 class.

With QISPGGLEPPSEKHFRETEV (modifications not checked) [TAX], the Classification in assay [1] came out at 1 A450 class; in assay [2], 5 A450 class; in [3], 1 A450 class; in assay [19], 1 A450 class; in assay [4] it was 1 A450 class; in assay [5] it was 1 A450 class. In addition, the Classification in assay [7] was 5 A450 class; in assay [8] it was 3 A450 class; in assay [9], 1 A450 class; in assay [10], 5 A450 class; in assay [11], 1 A450 class; in [12] it was 1 A450 class. Moreover, the Classification is 5 A450 class in assay [15], 2 A450 class in assay [16], 5 A450 class in [17] and 5 A450 class in [18].

As for ILNSIQVMRAQMNQIQSVEV (modifications not checked) [ephrin B2], the Classification in assay [1] is 1 A450 class; in assay [3], 2 A450 class; in assay [19], 2 A450 class; in assay [4] it was 2 A450 class; in assay [20] it was 2 A450 class; in assay [5] it was 2 A450 class. For the same molecule, the Classification in assay [6] worked out at 2 A450 class; in assay [7] it was 2 A450 class; in assay [8], 3 A450 class; in assay [10], 2 A450 class; in [11], 1 A450 class; in assay [12] it was 2 A450 class. Moreover, the Classification in [13] stood at 3 A450 class; in [14], 2 A450 class; in assay [21] it was 2 A450 class; in assay [16] it was 2 A450 class; in assay [17] it was 2 A450 class; in assay [18], 2 A450 class.
